# Reference: PMC9574498
# Several values for one entry are separate records, joined by “and”; a condition that tells them apart may be missing. Equal values may be shown once.
# Molecular target: human P2X7R ballast domain (P2X7BD, residues 395–595) (human) (UniProt Q99572)
# Test: cross-linking
# Sequence of human P2X7R ballast domain (P2X7BD, residues 395–595) (human) (Q99572 395-595): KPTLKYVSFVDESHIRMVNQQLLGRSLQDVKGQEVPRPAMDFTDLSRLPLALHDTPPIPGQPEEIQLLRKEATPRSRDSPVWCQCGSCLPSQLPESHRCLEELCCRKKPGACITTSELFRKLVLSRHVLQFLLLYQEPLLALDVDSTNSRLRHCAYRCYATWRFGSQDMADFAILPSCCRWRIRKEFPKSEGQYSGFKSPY
substance,measurement,value
human calmodulin (Ca^2+-CaM; apo-CaM in EDTA) (from UniProt P0DP23 1-149) (natural protein),stoichiometry N (Ca^2+-CaM per P2X7BD),1 and 2
